We go through one compound from patent US20210252159A1, “CONJUGATES OF CARTILAGE-HOMING PEPTIDES” (priority 2018, published 2021).

Like-named read-outs stand apart in the source and are kept apart here. Positions of bridges follow the written chain, without caps; N, C: chain ends. Residues, ends and D or L forms follow the SMILES beside them. *: point of attachment. X1 = CC(CCC(C)C(=O)*)C(=O)OCC(=O)[C@@]1(O)[C@H](C)C[C@H]2[C@@H]3CCC4=CC(=O)C=C[C@]4(C)[C@@]3(F)[C@@H](O)C[C@@]21C

The nature of data set [1]: Hydrolysis assay of peptide-drug conjugates in PBS (free Dex by LC/MS). As to conditions: 37° C. The class given is physicochemical. On the procedure: (§1) In order to determine hydrolysis rates, conjugates can be diluted in PBS, rat plasma, or human plasma and incubated at 37 degrees. Samples can be taken at designated time-points (e.g., 1, 2, 3, 5, 10, 15, 20, 25, 30, 45, 60, or 90 minutes and/or hours after administration). Internal standards such as triamcinolone acetonide (TAA) can be added as an internal standard, and then active agent/TAA can be extracted using acetonitrile, for example. The samples can be dried down, reconstituted, and analyzed by LC/MS. Data can be normalized using Dex AUC/TAA AUC. Percent hydrolysis can be calculated using the average ratio for active agent AUC/TAA AUC at a time point of maximal drug release. A general method can include using a lyophilized, purified peptide-drug conjugates reconstituted in DMSO following production to generate stock solution at 20 mg/mL. Each conjugate stock can be brought to 0.25 mg/mL in each hydrolysis condition (1×DPBS, human plasma and rat plasma) in triplicate and rocked at 37° C. To quantitate free active agent, 100 μl of the hydrolyzed conjugate solution can be transferred into 1 mL acetonitrile at 4° C. at which time all plasma proteins and intact conjugates can precipitate. This can be performed repeatedly to generate a series of time points (0 hr, 0.5 hr, 1 hr, 2 hr, 4 hr, 6 hr, 8 hr, 24 hr, 32 hr). The acetonitrile solution can be spun at 17,000 g for 5 minutes, and the supernatant removed and added to a 96 well block. The pellet can then be resuspended in 500 μl acetonitrile and re-pelleted as before. The supernatant can be removed and added to the same well in the block. Samples can be prepared for analysis by drying under a nitrogen stream followed by reconstitution in 110 μl 45:55 ACN:Citrate 10 mM pH 5.5. To ensure optimal recovery the block can be shaken via plate shaker at 7,000 rpm for 5 minutes during the reconstitution step. Prior to LC/MS the samples can be transferred to a 96 well plate and centrifuged at 6,500 g for 15 minutes. Analysis can be performed on an Agilent 1260 Infinity series HPLC with inline 6120 single quad MS using acetonitrile, water (+0.1% TFA) gradient (shown below) on an InfinityLab Poroshell SB-C18 column. Quantification of free active agent (or drug) can be achieved through integration of active agent peaks of the TIC.
Lyophilized, purified peptide-drug conjugates were reconstituted in DMSO following production to generate stock solution at 20 mg/mL. Each conjugate stock was brought to 0.25 mg/mL in each hydrolysis condition (1×DPBS, human plasma and rat plasma) in triplicate and rocked at 37° C.
To quantitate free dexamethasone (Dex), 100 μl of the hydrolyzed conjugate solution was transferred into 1 mL acetonitrile at 4° C. at which time all plasma proteins and intact conjugates precipitated. This was performed repeatedly to generate a series of time points (0 hr, 0.5 hr, 1 hr, 2 hr, 4 hr, 6 hr, 8 hr, 24 hr, 32 hr). The corticosteroid triamcinolone acetonide (25 μl, 0.1 mg/mL in 45:55 ACN:Citrate 10 mM pH 5.5) was supplemented into the acetonitrile solution as an internal standard. The acetonitrile solution was spun at 17,000 g for 5 minutes, and the supernatant removed and added to a 96 well block. The pellet was resuspended in 500 μl acetonitrile and re-pelleted as before. The supernatant was removed and added to the same well in the block.
Samples were prepared for analysis by drying under a nitrogen stream followed by reconstitution in 110 μl 45:55 ACN:Citrate 10 mM pH 5.5. To ensure optimal recovery the block was shaken via plate shaker at 7,000 rpm for 5 minutes during the reconstitution step. Prior to LC/MS the samples were transferred to a 96 well plate and centrifuged at 6,500 g for 15 minutes. Analysis was performed on an Agilent 1260 Infinity series HPLC with inline 6120 single quad MS using a gradient of 0.1% TFA in acetonitrile (solvent B), and 0.1% TFA (aq) (solvent A) gradient (shown below) on an InfinityLab Poroshell SB-C18 column. […]

Data set [2] is described as follows: Hydrolysis assay of peptide-drug conjugates in human plasma (free Dex by LC/MS). The class given is in vitro ADME. As to conditions: 37° C., release of free Dex, time points to 32 hr, read-out: Half-life (hours) as measured in the hydrolysis experiments (converted). Here is the method:
as §1, with “To ensure optimal recovery the block can be shaken via plate shaker at 7,000 rpm for 5 minutes during the reconstitution step. Prior to LC/MS the samples can be transferred to a 96 well plate and centrifuged at 6,500 g for 15 minutes. Analysis can be performed on an Agilent 1260 Infinity series HPLC with inline 6120 single quad MS using acetonitrile, water (+0.1% TFA) gradient (shown below) on an InfinityLab Poroshell SB-C18 column.” left out, “TIC. […]” for “TIC.”
To quantitate free dexamethasone (Dex), 100 μl of the hydrolyzed conjugate solution was transferred into 1 mL acetonitrile at 4° C. at which time all plasma proteins and intact conjugates precipitated. […]

The subject of a further data set is CIA rats. It counts as in vivo. Here is the method: Ankle diameter measurements were recorded daily starting on induction day 9 and continuing for the duration of the study. […] Each treatment was administered on the day of enrollment (study day 0) and repeated daily for 7 days (study day 6). Rats were euthanized 3 h after the final dose and blood and organs were collected for testing.

A further data set can be described thus: in vivo. From the text: Dexamethasone alone has low water solubility. […] A secondary objective was to measure free Dex levels in knee joints.
All samples were collected at euthanasia. Free Dex was extracted from plasma samples and quantified by LC/MS. […] To measure the total Dex concentration (free Dex released in vivo+Dex associated with intact peptide-drug conjugate) in plasma of rats treated with Peptide(SEQ ID NO: 105)-DMA-Dex, a separate plasma sample was subjected to forced hydrolysis followed by extraction of free Dex. Dexamethasone extraction was achieved by acetonitrile precipitation from plasma samples. The forced hydrolysis protocol involved addition of 10 U porcine esterase to the plasma and incubation for 22 h at 37° C. Total white blood cell counts, absolute lymphocyte counts, and thymus and spleen weights were measured to assess systemic markers of Dex exposure over the time-course.
In order to quantify the concentration of free Dex in knee joints, knee joints were harvested, the joint capsule was opened, and the knee joints were then shaken in ethyl acetate for 12 h at 4° C. The extract was centrifuged and the supernatant was dried under nitrogen in a 96 well plate. The samples were then reconstituted and analyzed by LC/MS using the same protocol developed for quantifying free Dex in plasma.
An indirect estimate of intact peptide-drug conjugate concentration at each time-point can be made by subtracting the free Dex concentration (from direct extraction) from the total Dex concentration (from forced hydrolysis). […] Systemic exposure to Dex was assessed by multiple parameters: total white blood cell (WBC) count; absolute lymphocyte count; thymus weight; and spleen weight (FIG. 15).

Setting [3] is: 0.05 mg/kg daily for 7 days, study day 6.
Setting [4] is: any time-point to 24 h, single IV dose 0.2 mg/kg.

As for `CC[C@H](C)[C@@H]1NC(=O)[C@@H]2CSSC[C@H](NC(=O)[C@H](CCCNC(=N)N)NC(=O)[C@@H](NC(=O)[C@H](CC(N)=O)NC(=O)[C@@H](NC(=O)[C@@H]3CCCN3C(=O)[C@@H](NC(=O)CNC(=O)[C@H](CO)NC(=O)CNC(=O)C(C)CCC(C)C(=O)OCC(=O)[C@@]3(O)[C@H](C)C[C@H]4[C@@H]5CCC6=CC(=O)C=C[C@]6(C)[C@@]5(F)[C@@H](O)C[C@@]43C)C(C)C)[C@@H](C)CC)C(C)C)C(=O)N[C@@H](CCCNC(=N)N)C(=O)NCC(=O)N[C@@H](CO)C(=O)N[C@@H](CCCNC(=N)N)C(=O)N[C@@H](CC(=O)O)C(=O)N[C@H]3CSSC[C@H](NC(=O)[C@H](CCCNC(=N)N)NC(=O)[C@H](CO)NC(=O)[C@H](CC(N)=O)NC1=O)C(=O)N[C@@H](Cc1c[nH]cn1)C(=O)N[C@H](C(=O)N[C@H](C(=O)N1CCC[C@H]1C(=O)O)[C@@H](C)O)CSSC[C@H](NC(=O)[C@@H]1CCCN1C(=O)[C@H](CC(=O)O)NC(=O)[C@H](CC(C)C)NC3=O)C(=O)N[C@@H](CCCNC(=N)N)C(=O)N[C@@H](CCCNC(=N)N)C(=O)N[C@@H](C)C(=O)NCC(=O)N[C@@H](CCSC)C(=O)N[C@@H](CCCNC(=N)N)C(=O)N[C@@H](Cc1ccccc1)C(=O)NCC(=O)N[C@@H](CCCNC(=N)N)C(=O)N2` (stereo partly shown) [Compound 27, peptide(SEQ ID NO: 105)-[dimethyladipic acid]-Dex] (X1-GSGVPINVRCRGSRDCLDPCRRAGMRFGRCINSRCHCTP-OH; disulfide 10-30, 16-35, 20-37 (inferred); C-terminus assumed), in data set [1] (PBS, release of free Dex, time points to 32 hr), the “Half-life (hours) as measured in the hydrolysis experiments” value is “undetectable ≤32”. The Hydrolysis half-life result in data set [1] (in PBS, free Dex) is reported as “No Dex release ≤32 h”. Besides, the half-life at 0.25 mg/mL in data set [2] was 22.4 h. For the same compound, in the data set with CIA rats (0.05 mg/kg), the “plasma lymphocyte counts as compared to DexSP” value is recorded as “significantly higher” and the “spleen weight as compared to DexSP” value is “significantly higher”. Also, in the data set on CIA rats (setting [3]), the “plasma lymphocyte counts as compared to vehicle” value is on record as “significantly reduced”, the “spleen weight as compared to vehicle” value is “significantly reduced” and the “thymus weight as compared to vehicle” value is “significantly reduced”. In the data set on CIA rats (highest dose of 0.05 mg/kg daily for 7 days), the ankle inflammation result is “effective at reducing ankle inflammation”. Moreover, in the data set with CIA rats (lower doses (0.001, 0.005, 0.01 mg/kg) daily for 7 days), the ankle inflammation entry is recorded as “indistinguishable from vehicle”. The “WBC and lymphocyte cell counts as compared to DexSP” value in “in vivo” (2 h after single IV dose 0.2 mg/kg) is given as “higher”. The “lymphocyte counts as compared to DexSP” value in the data set “in vivo” (12 h after single IV dose 0.2 mg/kg) is on record as “lower”. For the same compound, in “in vivo” (setting [4]), the “Thymus weight, difference between DexSP and conjugate” value was “not significantly different”; the “spleen weight, difference between DexSP and conjugate” value was “not significantly different”. The half-life in the data set “in vivo” (female, Lewis, rat, in vivo, iv, 0.2 mg/kg) was approximately 1.5 h. Besides, in “in vivo” (plasma, total Dex minus free Dex, single IV dose 0.2 mg/kg), the “detectability of intact peptide-drug conjugate in plasma” value is “not detectable after 6 h”.
